# Assay results reported in patent US20160002357A1 (Pfizer, published 2016).
# Changes are numbered by the printed parent chain.
# B1: anti-P-cadherin scFv 153 alanine-mutant H2.13-Ala (scFv, V domains shown)
# VH: EVQLVQSGAEVKKPGASVKVSCKASGYTFTSYGISWVRQAPGQGLEWMGWISAYNGNTNYAAKLQGRVTMTTDTSTSTAYMELRSLRSDDTAVYYCATIDTANAFGIWGQGTMVTVSS
# VL: QSVLTQPPSVSAAPGQKVTISCSGSSSNIGNNYVSWYQQLPGTAPKLLIYDNNKRPSGIPDRFSGSKSGTSATLGITGLQTGDEADYYCGTWDSSLSGVVFGGGTKLTVL
# notes: scFv on phage
# B2: anti-P-cadherin scFv 153 alanine-mutant H3.5-Ala (scFv, V domains shown)
# VH: B1 VH with A62Q, N103A
# VL: B1 VL
# notes: scFv on phage
# B3: anti-P-cadherin scFv 153 alanine-mutant H3.2-Ala (scFv, V domains shown)
# VH: B1 VH with A62Q, D100A
# VL: B1 VL
# notes: scFv on phage
# B4: anti-P-cadherin scFv 153 alanine-mutant H2.14-Ala (scFv, V domains shown)
# VH: B1 VH with A62Q, K63A
# VL: B1 VL
# notes: scFv on phage
# B5: anti-P-cadherin scFv 153 alanine-mutant H2.16-Ala (scFv, V domains shown)
# VH: B1 VH with A62Q, Q65A
# VL: B1 VL
# notes: scFv on phage
# B6: anti-P-cadherin scFv 153 alanine-mutant H3.3-Ala (scFv, V domains shown)
# VH: B1 VH with A62Q, T101A
# VL: B1 VL
# notes: scFv on phage
# B7: anti-P-cadherin scFv 153 alanine-mutant H3.9-Ala (scFv, V domains shown)
# VH: B1 VH with A62Q, I107A
# VL: B1 VL
# notes: scFv on phage
# B8: anti-P-cadherin scFv 153 alanine-mutant H2.15-Ala (scFv, V domains shown)
# VH: B1 VH with A62Q, L64A
# VL: B1 VL
# notes: scFv on phage
# B9: anti-P-cadherin scFv 153 alanine-mutant H3.1-Ala (scFv, V domains shown)
# VH: B1 VH with A62Q, I99A
# VL: B1 VL
# notes: scFv on phage
# B10: anti-P-cadherin scFv 153 alanine-mutant H3.8-Ala (scFv, V domains shown)
# VH: B1 VH with A62Q, G106A
# VL: B1 VL
# notes: scFv on phage
# B11: anti-P-cadherin scFv 153 alanine-mutant H2.17-Ala (scFv, V domains shown)
# VH: B1 VH with A62Q, G66A
# VL: B1 VL
# notes: scFv on phage
# B12: anti-P-cadherin scFv 153 alanine-mutant H3.7-Ala (scFv, V domains shown)
# VH: B1 VH with A62Q, F105A
# VL: B1 VL
# notes: scFv on phage
# B13: anti-P-cadherin scFv 153 alanine-mutant L1.2-Ala (scFv, V domains shown)
# VH: B1 VH with A62Q
# VL: B1 VL with G24A
# notes: scFv on phage
# B14: anti-P-cadherin scFv 153 alanine-mutant L1.5-Ala (scFv, V domains shown)
# VH: B1 VH with A62Q
# VL: B1 VL with S27A
# notes: scFv on phage
# B15: anti-P-cadherin scFv 153 alanine-mutant L1.3-Ala (scFv, V domains shown)
# VH: B1 VH with A62Q
# VL: B1 VL with S25A
# notes: scFv on phage
# B16: anti-P-cadherin scFv 153 alanine-mutant L1.13-Ala (scFv, V domains shown)
# VH: B1 VH with A62Q
# VL: B1 VL with S35A
# notes: scFv on phage
# B17: anti-P-cadherin scFv 153 alanine-mutant L1.6-Ala (scFv, V domains shown)
# VH: B1 VH with A62Q
# VL: B1 VL with N28A
# notes: scFv on phage
# B18: anti-P-cadherin scFv 153 alanine-mutant L1.12-Ala (scFv, V domains shown)
# VH: B1 VH with A62Q
# VL: B1 VL with V34A
# notes: scFv on phage
# B19: anti-P-cadherin scFv 153 alanine-mutant L1.1-Ala (scFv, V domains shown)
# VH: B1 VH with A62Q
# VL: B1 VL with S23A
# notes: scFv on phage
# B20: anti-P-cadherin scFv 153 alanine-mutant L1.10-Ala (scFv, V domains shown)
# VH: B1 VH with A62Q
# VL: B1 VL with N32A
# notes: scFv on phage
# B21: anti-P-cadherin scFv 153 alanine-mutant L1.11-Ala (scFv, V domains shown)
# VH: B1 VH with A62Q
# VL: B1 VL with Y33A
# notes: scFv on phage
# B22: anti-P-cadherin scFv 153 alanine-mutant L1.9-Ala (scFv, V domains shown)
# VH: B1 VH with A62Q
# VL: B1 VL with N31A
# notes: scFv on phage
# B23: anti-P-cadherin scFv 153 alanine-mutant L2.4-Ala (scFv, V domains shown)
# VH: B1 VH with A62Q
# VL: B1 VL with K54A
# notes: scFv on phage
# B24: anti-P-cadherin scFv 153 alanine-mutant L1.4-Ala (scFv, V domains shown)
# VH: B1 VH with A62Q
# VL: B1 VL with S26A
# notes: scFv on phage
# B25: anti-P-cadherin scFv 153 alanine-mutant L1.8-Ala (scFv, V domains shown)
# VH: B1 VH with A62Q
# VL: B1 VL with G30A
# notes: scFv on phage
# B26: anti-P-cadherin scFv 153 alanine-mutant L2.2-Ala (scFv, V domains shown)
# VH: B1 VH with A62Q
# VL: B1 VL with N52A
# notes: scFv on phage
# B27: anti-P-cadherin scFv 153 alanine-mutant L2.3-Ala (scFv, V domains shown)
# VH: B1 VH with A62Q
# VL: B1 VL with N53A
# notes: scFv on phage
# B28: anti-P-cadherin scFv 153 alanine-mutant L1.7-Ala (scFv, V domains shown)
# VH: B1 VH with A62Q
# VL: B1 VL with I29A
# notes: scFv on phage
# B29: anti-P-cadherin scFv 153 alanine-mutant L2.1-Ala (scFv, V domains shown)
# VH: B1 VH with A62Q
# VL: B1 VL with D51A
# notes: scFv on phage
# Molecular target: T1, P-cadherin-ECD1-3-Fc protein (human P-cadherin-Fc) (human, UniProt P22223 108-440)
# T1 construct: Construct was expressed with signal peptide and pro-peptide (PACE co-transfected to process the propeptide); not shown: hinge and CH2 and CH3 domains of human IgG1
# Experiment: phage scFv ELISA, coated P-cadherin-ECD1-3-Fc
# Description: (§1) P-cadherin-ECD1-3-Fc protein or negative control protein was coated overnight at 4° C. on 96-well Nunc Maxisorp® plates (Thermo Fisher Scientific, Madison, Conn.) at a concentration of 2 μg/mL in PBS+Ca²⁺ and Mg²⁺. Plates were washed three times using PBS+Ca²⁺ and Mg²⁺ and blocked for 1 hour at room temperature in 3% milk/PBS+Ca²⁺ and Mg²⁺. Phage samples prepared as described above were added to the blocked plates for 1 hour at room temperature. Plates were washed three times with PBS+Ca²⁺ and Mg²⁺ prior to the addition of secondary antibody (anti M13-HRP 1:2000, GE Healthcare, Piscataway, N.J.). Plates were incubated for a further 1 hour at room temperature and washed six times with PBS+Ca²⁺ and Mg²⁺. Signal was developed using TMB (SurModics, Eden Prairie, Minn.), the reaction stopped with H₂SO₄ and the absorbance read at 450 nm on an EnVision® plate reader (Perkin Elmer, Waltham, Mass.).
# T1 sequence (P22223 108-440): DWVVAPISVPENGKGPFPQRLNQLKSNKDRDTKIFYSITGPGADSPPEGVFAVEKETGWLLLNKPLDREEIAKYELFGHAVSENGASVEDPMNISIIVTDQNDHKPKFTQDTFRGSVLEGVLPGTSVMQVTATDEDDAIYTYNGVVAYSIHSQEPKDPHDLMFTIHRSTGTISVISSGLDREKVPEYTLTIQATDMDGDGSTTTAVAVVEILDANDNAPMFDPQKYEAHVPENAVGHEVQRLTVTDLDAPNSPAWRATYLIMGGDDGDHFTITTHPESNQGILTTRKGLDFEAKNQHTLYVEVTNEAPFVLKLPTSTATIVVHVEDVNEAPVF
Binder,% of binding of Clone #153 to human P-cadherin-Fc [%],Human P-cadherin-Fc binding (OD450),Z Score
B1,152,2.01,1.1
B2,58,0.77,-0.9
B3,168,2.22,1.4
B4,117,1.54,0.4
B5,68,0.9,-0.7
B6,171,2.26,1.5
B7,61,0.8,-0.8
B8,101,1.34,0
B9,13,0.17,-1.8
B10,103,1.36,0.1
B11,162,2.14,1.3
B12,23,0.31,-1.6

# Molecular target: T1, P-cadherin-ECD1-3-Fc protein (human …)
# Experiment: phage scFv ELISA, coated P-cadherin-ECD1-3-Fc
# Remark: another data set of the same source
# Description: ScFvs may be expressed on the surface of a phage particle. To prepare phage expressing scFv on their surface, 96-deep well plates containing 1 mL 2× TY media with 2% glucose/100 μg/mL ampicillin were inoculated with 0.5-1 μL from thawed glycerol stocks (one clone per well) using the QPix™2 Colony picker (Molecular Devices, Sunnyvale Calif.) and grown at 37° C. (900 rpm) for ˜4 hours. Next, 5 μL of a 1:29 dilution of helper phage (8.3×10¹³ pfu) was added and the plates and incubated for a further 30 minutes at 37° C. with no shaking then 1 hour at 300 rpm. Plates were centrifuged and the media was replaced with a kanamycin/non-glucose containing media (2× TY with 50 μg/mL kanamycin and 100 μg/mL ampicillin). Plates were grown overnight at 25° C. (900 rpm), and phage were harvested in the supernatant following centrifugation.
# as §1
Binder,% of binding of Clone #153 to human P-cadherin-Fc [%],Human P-cadherin-Fc binding (OD450),Z Score
B13,97,1.28,-0.1
B14,129,1.7,0.6
B15,165,2.19,1.4
B16,171,2.26,1.5
B17,88,1.16,-0.3
B18,173,2.29,1.6
B19,166,2.19,1.4
B20,137,1.81,0.8
B21,139,1.84,0.8
B22,129,1.71,0.6
B23,161,2.13,1.3
B24,175,2.31,1.6
B25,75,1,-0.5
B26,102,1.35,0
B27,74,0.98,-0.5
B28,108,1.42,0.2
B29,110,1.45,0.2
